Columns and labels:
[1] = target: synaptotagmin-1, intact 65 kDa protein (rat) (UniProt P21707)
[2] = test system: GST-CRMP2 recombinant protein (Kinasource, cat# SU-040) [GST: P08515]
[3] = target: collapsin response mediator protein-2, intact (rat) (UniProt P47942)
[4] = test system: GST-synaptotagmin recombinant protein [GST: P08515]
GST-synaptotagmin recombinant protein [GST: P08515], sequence (P08515 whole entry, looked up): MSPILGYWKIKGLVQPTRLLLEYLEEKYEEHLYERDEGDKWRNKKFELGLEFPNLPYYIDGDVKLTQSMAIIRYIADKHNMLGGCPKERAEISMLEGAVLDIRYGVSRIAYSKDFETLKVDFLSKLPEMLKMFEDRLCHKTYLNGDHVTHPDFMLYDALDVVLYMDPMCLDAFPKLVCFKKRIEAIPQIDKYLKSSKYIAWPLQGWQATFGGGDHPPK

synaptotagmin-1, intact 65 kDa protein (rat), sequence (P21707 whole entry): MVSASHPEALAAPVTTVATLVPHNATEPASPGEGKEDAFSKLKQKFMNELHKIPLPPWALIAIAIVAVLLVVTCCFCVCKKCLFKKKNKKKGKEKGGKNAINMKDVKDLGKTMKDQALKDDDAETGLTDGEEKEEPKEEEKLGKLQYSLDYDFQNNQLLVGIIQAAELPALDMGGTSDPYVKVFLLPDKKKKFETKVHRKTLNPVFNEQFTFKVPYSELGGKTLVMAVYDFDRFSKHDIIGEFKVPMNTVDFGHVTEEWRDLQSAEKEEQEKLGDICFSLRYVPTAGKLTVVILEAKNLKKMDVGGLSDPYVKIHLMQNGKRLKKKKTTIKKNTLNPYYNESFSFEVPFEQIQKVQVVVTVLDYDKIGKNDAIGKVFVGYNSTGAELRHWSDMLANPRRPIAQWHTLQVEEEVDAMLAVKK
GST-CRMP2 recombinant protein (Kinasource, cat# SU-040) [GST: P08515], sequence (P08515 whole entry, looked up): as the sequence (P08515 whole entry, looked up) above

Substance	in vitro protease digestion, Western blot [1]	in vitro digestion of the purified protein, Coomassie and Western blot [2]	in vitro protease digestion of naive brain lysate, Western blot [3]	in vitro digestion of the recombinant protein, Western blot [4]
MMP-2	Overall, Syt1 was relatively resistant to these proteases and under no conditions was the TBI-associated characteristic BDP-33k detected (results not shown).			
MMP-9	Overall, Syt1 was relatively resistant to these proteases and under no conditions was the TBI-associated characteristic BDP-33k detected (results not shown).			
calpain (purified; isoform not named where the result is told)		purified GST-CRMP-2 protein digested by calpain. The obtained cleavage fragments were used to determine the calpain cleavage site.	in vitro calpain treatment of naive brain lysate resulted in the same fragmentation pattern observed after TBI in vivo, with the 62 kDa and 66 kDa intact CRMP-2 bands disappearing	The recombinant synaptotagmin was cleaved in vitro to a 21 kDa BDP as detected with anti-GST.
cathepsin B	Overall, Syt1 was relatively resistant to these proteases and under no conditions was the TBI-associated characteristic BDP-33k detected (results not shown).			
cathepsin D	Overall, Syt1 was relatively resistant to these proteases and under no conditions was the TBI-associated characteristic BDP-33k detected (results not shown).			

From US20120196307
